Measurements as given in patent US20260226185A1 (MAYO FOUNDATION FOR MEDICAL EDUCATION AND RESEARCH, published 2026).

Target: T1, human B-cell activating factor receptor (BAFF-R) polypeptide (human, UniProt Q96RJ3 1-184)
T1 sequence: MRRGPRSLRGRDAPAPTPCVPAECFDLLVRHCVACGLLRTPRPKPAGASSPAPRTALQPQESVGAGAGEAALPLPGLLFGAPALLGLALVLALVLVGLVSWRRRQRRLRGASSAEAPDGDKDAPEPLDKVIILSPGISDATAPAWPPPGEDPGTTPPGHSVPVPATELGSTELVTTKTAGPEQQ
Test: flow cytometry on BAFF-R expressing 293FT cells vs 293FT cells, R-PE goat anti-mouse IgG detection
Protocol: The lead clone was identified and advanced to purification. […] Following two washes in FACS (PBS with 2% bovine serum albumin), cells were incubated with R-PE conjugated goat anti-mouse IgG for 30 minutes at 4° C. Cells were then washed as before and resuspended in 400 μL FACS for analysis on an Attune flow cytometer (Thermo Fisher). […] Anti-BAFF-R monoclonal antibody development was monitored by R-phycoerythrin conjugated goat anti-mouse IgG (BD Bioscience, San Jose, California).

B1: anti-BAFF-R monoclonal antibody C21 (Clone #1) (antibody, V domains shown)
VH: DVQLVESGGGLVQPGGSRKLSCAASGFTFSSFGMHWVRQAPEKGLEWVAYINSGSSTINYADTVKGRFTISRDNPKNTLFLQMTSLRSEDTAMYYCTIYYYAMDYWGQGTSVTVSS
VL: DIVMSQSPSSLTVSVGEKVSMSCKSSQTLLYSGNQKNYLAWYQQKPGQSPKLLIYWASTRESGVPDRFAGSGSGTDFTLTISSVKAEDLAVYYCQQYYIYPPWTFGGGTKLEIK
notes: Mouse hybridoma antibody, tested as crude supernatant and as purified mAb and detected with R-PE goat anti-mouse IgG; the mouse constant regions and the isotype are not; also called hybridoma clone 21; mAb C21
B1: binds.
